Results published in publication PMC9482650, “Quantitative fragmentomics allow affinity mapping of interactomes” (Nature Communications, 2022).

What was measured:
Test in all cases: holdup assay
Set-up in all cases: key: below the threshold = too weak to quantify, mostly under pKd 3.1 to 4
Settings in all cases: plain residues with an end cap or a label only (N-terminal biotin on a linker: ttds)
CARD14, Q9BXL6 = target: CARD14, Q9BXL6
DVL2, O14641 = target: DVL2, O14641
GIPC1, O14908 = target: T1, GIPC1, O14908
T1 sequence (O14908 128-223, limits assumed, looked up): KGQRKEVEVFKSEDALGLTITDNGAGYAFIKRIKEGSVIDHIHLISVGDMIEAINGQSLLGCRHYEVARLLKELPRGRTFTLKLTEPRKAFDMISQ

GIPC3, Q8TF64 = target: GIPC3, Q8TF64
GRIP2_2, Q9C0E4 = target: GRIP2_2, Q9C0E4
INTU, Q9ULD6 = target: T2, INTU, Q9ULD6
T2 sequence (Q9ULD6 180-273, limits assumed, looked up): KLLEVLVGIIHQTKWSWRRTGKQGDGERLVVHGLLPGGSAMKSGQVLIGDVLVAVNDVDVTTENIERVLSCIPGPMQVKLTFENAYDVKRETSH

MAGI1_6, Q96QZ7 = target: MAGI1_6, Q96QZ7
MAGI3_3, Q5TCQ9 = target: MAGI3_3, Q5TCQ9
MAST3, O60307 = target: MAST3, O60307
MPDZ_13, O75970 = target: T3, MPDZ_13, O75970
T3 sequence (O75970 1982-2070, limits assumed, looked up): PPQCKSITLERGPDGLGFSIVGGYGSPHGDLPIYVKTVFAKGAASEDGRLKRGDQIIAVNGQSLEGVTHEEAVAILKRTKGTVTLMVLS

MPDZ_6, O75970 = target: T4, MPDZ_6, O75970
T4 sequence (O75970 1003-1099, limits assumed, looked up): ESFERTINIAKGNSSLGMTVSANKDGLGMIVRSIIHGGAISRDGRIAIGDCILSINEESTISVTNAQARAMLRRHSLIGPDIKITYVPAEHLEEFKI

MPDZ_7, O75970 = target: T5, MPDZ_7, O75970
T5 sequence (O75970 1146-1253, limits assumed, looked up): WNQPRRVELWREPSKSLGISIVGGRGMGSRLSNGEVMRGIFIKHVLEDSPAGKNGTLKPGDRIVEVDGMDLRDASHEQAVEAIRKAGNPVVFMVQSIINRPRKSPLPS

MPP5, Q8N3R9 = target: T6, MPP5, Q8N3R9
T6 sequence (Q8N3R9 251-346, limits assumed, looked up): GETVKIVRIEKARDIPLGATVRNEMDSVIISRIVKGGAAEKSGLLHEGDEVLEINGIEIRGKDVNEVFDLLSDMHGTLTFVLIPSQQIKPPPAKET

PARD3B_2, Q8TEW8 = target: PARD3B_2, Q8TEW8
PARD3B_3, Q8TEW8 = target: PARD3B_3, Q8TEW8
PARD6G, Q9BYG4 = target: T7, PARD6G, Q9BYG4
T7 sequence (Q9BYG4 153-261, limits assumed, looked up): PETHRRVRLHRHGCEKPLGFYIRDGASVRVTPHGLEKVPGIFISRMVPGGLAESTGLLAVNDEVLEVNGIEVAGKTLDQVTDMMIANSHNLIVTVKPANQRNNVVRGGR

PDLIM4, P50479 = target: PDLIM4, P50479
PTPN4, P29074 = target: T8, PTPN4, P29074
T8 sequence (P29074 512-599, limits assumed, looked up): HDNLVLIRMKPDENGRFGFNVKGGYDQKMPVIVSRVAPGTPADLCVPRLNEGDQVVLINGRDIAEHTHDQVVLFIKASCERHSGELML

Q13368 = target: Q13368
Q8IUC4 = target: Q8IUC4
Q9NPB6 = target: Q9NPB6
Q9NR12 = target: Q9NR12
Q9P227 = target: Q9P227
RGS12, O14924 = target: T9, RGS12, O14924
T9 sequence (O14924 17-108, limits assumed, looked up): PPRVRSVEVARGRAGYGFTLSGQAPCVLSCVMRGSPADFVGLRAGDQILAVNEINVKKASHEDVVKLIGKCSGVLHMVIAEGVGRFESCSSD

RGS3, P49796-9 = target: RGS3, P49796-9
SHANK3, Q9BYB0 = target: T10, SHANK3, Q9BYB0
T10 sequence (Q9BYB0 641-750, limits assumed, looked up): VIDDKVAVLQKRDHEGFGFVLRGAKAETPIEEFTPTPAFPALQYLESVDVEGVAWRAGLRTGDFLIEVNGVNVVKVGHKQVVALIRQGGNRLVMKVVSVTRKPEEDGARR

SNTB2, Q13425 = target: T11, SNTB2, Q13425
T11 sequence (Q13425 110-208, limits assumed, looked up): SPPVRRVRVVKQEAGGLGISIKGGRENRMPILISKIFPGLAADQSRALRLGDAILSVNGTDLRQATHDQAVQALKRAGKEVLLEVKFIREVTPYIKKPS

TJP1_1, Q07157 = target: TJP1_1, Q07157
Chain of TJP1_1, Q07157 (Q07157 18-120): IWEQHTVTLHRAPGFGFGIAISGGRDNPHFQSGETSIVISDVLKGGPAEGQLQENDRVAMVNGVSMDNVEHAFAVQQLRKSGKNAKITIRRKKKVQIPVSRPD

Chain of RGS3, P49796-9 (P49796 other isoform, or with tags, fused parts or gaps): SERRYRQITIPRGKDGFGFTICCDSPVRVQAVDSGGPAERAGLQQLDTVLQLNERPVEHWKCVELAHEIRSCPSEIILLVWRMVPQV
Chain of PARD3B_2, Q8TEW8 (Q8TEW8 376-471): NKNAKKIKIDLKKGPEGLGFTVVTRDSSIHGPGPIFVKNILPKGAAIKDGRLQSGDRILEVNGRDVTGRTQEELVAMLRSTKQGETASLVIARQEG
Chain of GRIP2_2, Q9C0E4 (Q9C0E4 137-245): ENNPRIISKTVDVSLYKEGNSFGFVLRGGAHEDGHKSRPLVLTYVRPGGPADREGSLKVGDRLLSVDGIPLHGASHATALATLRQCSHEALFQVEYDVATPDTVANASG
Chain of MAGI1_6, Q96QZ7 (Q96QZ7 1146-1238): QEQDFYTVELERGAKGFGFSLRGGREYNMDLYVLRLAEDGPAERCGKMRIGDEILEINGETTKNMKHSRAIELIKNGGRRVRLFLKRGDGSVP
Chain of CARD14, Q9BXL6 (Q9BXL6 558-663): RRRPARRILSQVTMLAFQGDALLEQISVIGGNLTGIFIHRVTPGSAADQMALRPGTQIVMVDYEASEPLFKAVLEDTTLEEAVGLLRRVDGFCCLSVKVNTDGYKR
Chain of GIPC3, Q8TF64 (Q8TF64 107-202): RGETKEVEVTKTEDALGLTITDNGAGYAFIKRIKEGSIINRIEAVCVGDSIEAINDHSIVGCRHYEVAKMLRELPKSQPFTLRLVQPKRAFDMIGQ
Chain of DVL2, O14641 (O14641 260-359): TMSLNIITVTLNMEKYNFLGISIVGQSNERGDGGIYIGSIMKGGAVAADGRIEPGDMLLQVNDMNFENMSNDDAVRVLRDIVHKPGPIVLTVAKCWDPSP
Chain of MAGI3_3, Q5TCQ9 (Q5TCQ9 572-655): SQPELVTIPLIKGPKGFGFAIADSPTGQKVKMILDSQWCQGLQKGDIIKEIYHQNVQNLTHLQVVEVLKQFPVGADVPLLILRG
Chain of MAST3, O60307 (O60307 945-1048): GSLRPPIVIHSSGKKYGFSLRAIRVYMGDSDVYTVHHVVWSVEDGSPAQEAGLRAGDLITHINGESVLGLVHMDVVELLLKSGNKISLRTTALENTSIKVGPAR
Chain of PDLIM4, P50479 (P50479 1-83): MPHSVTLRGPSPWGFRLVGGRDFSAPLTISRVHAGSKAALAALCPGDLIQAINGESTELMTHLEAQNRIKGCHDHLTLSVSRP
Chain of PARD3B_3, Q8TEW8 (Q8TEW8 490-594): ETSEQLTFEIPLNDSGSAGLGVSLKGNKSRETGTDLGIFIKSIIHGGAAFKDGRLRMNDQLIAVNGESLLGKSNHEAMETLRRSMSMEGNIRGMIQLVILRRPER

With STLTIFETAL [ABCC4, O15439] the pKd (CARD14, Q9BXL6) was “below the threshold”, the pKd (DVL2, O14641) was “below the threshold” and the pKd (GIPC1, O14908) was 4.1. For the same binder, the pKd (GIPC3, Q8TF64) was 4.21, the pKd (GRIP2_2, Q9C0E4) was “below the threshold” and the pKd (INTU, Q9ULD6) was “below the threshold”. The pKd (MAGI1_6, Q96QZ7) was 4.22, the pKd (MAGI3_3, Q5TCQ9) was “below the threshold” and the pKd (MAST3, O60307) was 4.29. The pKd (MPDZ_13, O75970) was “below the threshold”, the pKd (MPDZ_6, O75970) was “below the threshold” and the pKd (MPDZ_7, O75970) was 5.01. For the same binder, the pKd (MPP5, Q8N3R9) was “below the threshold”, the pKd (PARD3B_2, Q8TEW8) was “below the threshold” and the pKd (PARD3B_3, Q8TEW8) was “below the threshold”. The pKd (PARD6G, Q9BYG4) was “below the threshold”, the pKd (PDLIM4, P50479) was “below the threshold” and the pKd (PTPN4, P29074) was 4.97. For the same binder, the pKd (Q13368) was “below the threshold”, the pKd (Q8IUC4) was “below the threshold” and the pKd (Q9NPB6) was “below the threshold”. For the same binder, the pKd (Q9NR12) was “below the threshold”, the pKd (Q9P227) was “below the threshold” and the pKd (RGS12, O14924) was “below the threshold”. For the same binder, the pKd (RGS3, P49796-9) was “below the threshold”, the pKd (SHANK3, Q9BYB0) was 5.54 and the pKd (SNTB2, Q13425) was 4.49. For the same binder, the pKd (TJP1_1, Q07157) was “below the threshold”.
